Laboratory results taken from PMC10420310, “The Complex Proteolipidic Behavior of the SARS-CoV-2 Envelope Protein Channel: Weak Selectivity and Heterogeneous Oligomerization” (International Journal of Molecular Sciences, 2023).

Biological target: the molecule itself
Experiment: AUC; sedimentation velocity, E-TM at DPR 25 (lowest DPR tested) in 5 mM C14SB micelles, 50 mM Tris-HCl pH 7.3, 100 mM NaCl, 29.4% D2O, 20 °C, 50,000 rpm

B1: transmembrane domain of SARS-2 E corresponding to residues 7–38 (E-TM) (peptide)
chain: EETGTLIVNSVLLFLAFVVFLLVTLAILTALR
notes: SARS-CoV-2 envelope (E) protein, transmembrane domain, residues 7-38; monomer 3490 Da; also called E-TM 7–38
For B1, the “stoichiometry N” value was roughly 3.3.
